Results published in the DeepSol protein solubility set.

Assay: soluble on expression in E. coli; label from the status in PepcDB or PDB records

Sequence | soluble on expression in E. coli
MKLKQLEGLLGDLEQFSNPKNRSVIGFDIDPESLETATLNAEELEVEIDFVQCDITKLELKGLIVDTVVMNPPFGTRKKGADMEFLSAAMKVASKAVYSLHKTSTRELRYDLPKLYKFHKRKEVDIAVDLWRFEPRQN | soluble
MKLKVVYRKVSDYICYDLKEIVLPSSLPDPPHVVKRRKLTWHERFLVLKEASRLYAASWVRDIGPELRPNDYKKQGDAEPKKQAKEAENEPSVLEDLAVAARGGMETLRPALHRLYMTRASNYKDALTSFIKGYHEGLQQVMQNKAESEAPADEADKSKKTT | soluble
MKLLTSPFQGLKWLAPLLADDGSLHIPPQDLIQHKGISSWEVKVIVTRIDFLADQVTGTAIHQLTIDPARPFSGTEVPINITGEGTLLVTMQITAMSEDRPYCNRQYLAADIIAVVPPGVQNKVHNITHPAAPTIQHLSVGGGYTPIRQLVVQRE | not soluble
MKLRTKIKRVRDVELPKYAKTGDSGFDLVAAEDTVIWPGETKVVPTGLAFEIPPGYELQVRPRSGMTRNTKLRVVLGTVDSGYRGEVGVLVDNTEIPKATNMQAHVIEKGTRIAQGVIVPVITAHFEEVDELSDSERGSGGFGSTGVK | not soluble
MKLTGKQTWVFEHPIFVNSAGTAAGPKEKDGPLGSLFDKTYDEMHCNQKSWEMAERQLMEDAVNVALQKNNLTKDDIDLLLAGDLLNQNVTANYVARHLKIPFLCMFGACSTSMETVAVASALVDGGFAKRALAATSSHNATAERQFRYPTEYGGQKPDTATSTVTGSGAVVISQTPGDIQITSATVGKVSDLGITDPFDMGSAMAPAAADTIKQHFKDLNRTADDYDLILTGDLSGVGSPIVKDILKEDGYPVGTKHDDCGLLIYTPDQQVFAGGSGCACSAVVTYSHIFKQLREGKLNRVFVVATGALLSPTMIQQKETIPTIAHGVVFERAGGASLEHHHHHH | soluble
MKLTIHEIAQVVGAKNDISIFEDTQLEKAEFDSRLIGTGDLFVPLKGARDGHDFIETAFENGAAVTLSEKEVSNHPYILVDDVLTAFQSLASYYLEKTTVDVFAVTGSNGKTTTKDMLAHLLSTRYKTYKTQGNYNNEIGLPYTVLHMPEGTEKLVLEMGQDHLGDIHLLSELARPKTAIVTLVGEAHLAFFKDRSEIAKGKMQIADGMASGSLLLAPADPIVEDYLPIDKKVVRFGQGAELEITDLVERKDSLTFKANFLEQALDLPVTGKYNATNAMIASYVALQEGVSEEQIRLAFQHLELTRNRTEWKKAANGADILSDVYNANPTAMKLILETFSAIPANEGGKKIAVLADMKELGDQSVQLHNQMILSLSPDVLDIVIFYGEDIAQLAQLASQMFPIGHVYYFKKTEDQDQFEDLVKQVKESLGAHDQILLKGSNSMNLAKLVESLEN | soluble
MKLTKTLLTTALFGASIFSFQSTAWADTPEQQFQQGLTAYEQSDYQTAFKLWLPMAEQGYAQAQGGLGMMYERGLGVKQDDFKAVNWYRKAAEQGDADAQLNLGAMYAIGHGVKQDGVEAVKWFRKAAEQGNAKAQNGLGMMYRGRLGIKQDYFKAVKWYRKAAEQGYGGAQVMLGFSYLSGKGVQVNKSLAKEWFGKACDNGEQVGCEYYSKLNRGER | not soluble
MKLVFYGAGNMAQAIFTGIINSNNLNANDIYLTNKSNEQALKSFAEKLGVNYSYDDEALLKDADYVFLGTKPHDFENLANRIREHITNDNRFISIMAGLSIDYIRQQLNTNNPLARIMPNTNAQVGHSVTGISFSNNFDPKSKNEVDELINAFGSVIEVSEEHLHQVTAITGSGPAFLYHVFEQYVKAGTELGLERNQVEESIRNLIIGTSKMIERSDLSMSQLRKNITSKGGTTQAGLDALSQYDIVSMFEDCLGAAVNRSMELSHKEDELEHHHHHH | soluble
MKLWSGGIQRDQNADSTVAFVKRDIEAEIYLMKYEILSLIAYHLDLAQRRLITEAESKCIINSLISLLQDSPKIDPEQEDAHTAVENAVIERCGDMGRNVRLFLSRNEQVHANVLMFTIERCHSIISILLDSIKVLKGADLKGLLPGTTHFMPAMPVTAATYSNYIENSLALAIRSIDRSLADASVLPYGYGSGYGSPNSGKLKVMSEMLGIGPVLKNPMIASSLYQFTIMQISNSIAGLSITLSRIAMDLIEYYRDGYVSLSDEFTTGSSLMPNKRNPDYLELLQGMAAVSSSVAVMSAMATMNKTSGYHRDFQMLKDSYIDMLNYIEEALLRLPDLFKGLRFEITDPMMLPGSIFATGNAWEDFANTHDWKQSYANIGRKIREKQDLKRYMPEDYVDIVEMHYLEEIEKKYGEILKKWDYLIEKAEAYISE | soluble
MKMFLAQKGVPFEFVNAREDEEARKKVTALAGSPTAGVVLEWEGGTEVIRGVSPASLHAWLARYRGKEA | soluble
MKMKYEWRKQEKTTYATKKQPQLLTIPAQTFMSIHGTGNPNGPEFQTHLQTLYPAAYGLKHAYKQYAQTQACEFDDYVVFPLEGVWSLTIKGQQLDHLDKDEFSYDIMIRVPDFVPNELIAPALAAVKAKKQLPTEQINVQQFDAMQVAQILHLGAYDDEPASFAKIDELVANQGMHRTSKIHREIYLSDARRVAPDKLKTILRYRVASN | not soluble
MKMMDANEIISFIQKSEKKTPVKVYIKGDLKEVTFPETVQAFVNKKSGVLFGEWSEIKTILDENSKYIVDYVVENDRRNSAIPMLDLKGIKARIEPGAIIRDHVEIGDNAVIMMNATINIGAVIGEGSMIDMNAVLGGRATVGKNCHVGAGAVLAGVIEPPSAKPVIVEDDVVIGANVVVLEGVTVGKGAVVAAGAVVTEDVPPYTVVAGTPARVIKEIDEKTKAKTEIKQELRQLNPEK | not soluble
MKMTLPFKPHVLALICSAGLCAASAGLYIKSRTVEAPVETQSTQLAVSDAAAVTLPATVSAPPVTPAVVKSAFSTAQIDQWVAPVALYPDALLSQVLMASTYPTNVAQAVQWSHDNPLKQGDAAIQAVSDQPWDASVKSLVAFPQLMALMGENPQWVQNLGDAFLAQPQDVMDSVQRLRQLAQQTGSLKSSTEQKVITTTKKTVPVTQTVTAPVIPSNTVSTANPVITEPATTVISIEPGNPDVVYIPNYNPTVVYGNWANTAYPPVYLPPPAGEPFVDSFVRGFGYSMGVATTYALFSSIDWDDDDHDHHHHDDDNYHHHDGGHRDGNGWQHNGDNINIDVNNFNRITGEHLTDKNMAWRHNPNYRNGVPYHDQDMAKRFHQTDVNGGMSATQLPAPTRDSQRQAAASQFQQRTHAAPVITRDTQRQAAAQRFNEAEHYGSYDDFRDFSRRQPLTQQQKDAARQRYQSASPEQRQAVHEKMQTNPQNQQRREAARERIQPASPEQRQAVREKMQTNPQIQQRRDAARERIQSASPEQRQVFKEKVQQRPLNQQQRDNARQRVQSASPEQRQVFREKVQESRPQRLNDSNHTARLNNEQRSAVRERLSERGARRLER | not soluble
MKNESIKIFQKKKQVILEKWITIQSQDQGLNNDLITNEDLRVQSEELLYTFIDNLTDNNIENPDSRDFENVLDILSSISISRAKQGYSPRETGFYVYSLKEALLSVLNEEIKDSSVLYTQSMAINKLLDSFTISTFETFIKGREDVIFRQTDEITQISTPVIRVWDGILALPIIGTLDSSRTQVVMESLLQEIVDTGSSIAILDISGVPAVDSLVAQHLIKTVSATRLMGAECIISGIRPEIAQTVVHLGIDLSTIITKATLASALKTAFVMLNLEVNKKQRNKTV | not soluble
MKNGEQNGPTTCTNCFTQTTPVWRRNPEGQPLCNACGLFLKLHGVVRPLSLKTDVIKKRNRNSANS | soluble
MKNIIIIGANGFTGRQILNDLSSKAQYKVTGCSLHPDILPKNGGNYHFITTDIRDEAVVKQLFKDVQPDVVINCSALSVPDYCETHHEEAWLTNVTAVEQLAHLCESYKSRFIHLSTDFVFDGKIDEKSGQLYTEKSLPAPVNYYGFTKWKGEEKVTEICSNYAIARVEIVYGKALPGQHGNIVQLVMNRLNAGQEIRVVSDQWRTPTYVGDVSAGVQHLVENAANGIFHICGEECLTIAEIAFQVADYMKLDRSLVHPATTEEMQEATPRPRFSGMSIAKARTILGYQPRKLKDILMEWKH | not soluble
MKNKLLYKLRSGKNPKFIYYSVNALRLIIPKGIFRLRLQGKLSSLSRRKDKEYIEHRVDYYNKLSGTVQLPSSAPHLSEHKMSKQKVYFFDTYQYTRWFSDQFQWGFCPGDVTFVPDYPSIVKSRPLTDDNVNSIVMKLDKVRHFIFVDDKKAFTEKKNMVIFRGKVKGKPSRKLFMEMYFHHPMCDLGDVSKNTTDPAEWRTEKKTINEHLDYKFIMALEGIDVASNLKWVMSSNSIAVMPRPTCETWFMEGTLIPNYHYIEIKPDFSDLEERLNYYIEHVDESLEIINHAHEYVSQFKDKRRENLISLLVLDKYFKMTGQKSLEHHHHHH | soluble
MKNTKLLLAIATSAALLTGCQNTHGIDTNMAISSGLNAYKAATLSDADAKAIANQGCAEMDSGNQVASKSSKYGKRLAKIAKALGNNINGTPVNYKVYMTSDVNAWAMANGCVRVYSGLMDMMNDNEIEGVLGHELGHVALGHSLAEMKASYAIVAARDAISATSGVASQLSRSQLGDIAEGAINAKYSRDKESEADDFSFDLLKKRGISTQGLVGSFEKLASLDGGRTQSMFDSHPPSTERAQHIRDRIASGKLEHHHHHH | soluble
MKPAYFISDLHLSEKQPELTALLLRFLRSSAAGQARAIYILGDLFDFWVGDDEVSELNTSVAREIRKLSDKGVAVFFVRGNRDFLIGQDFCRQAGMTLLPDYSVLDLFGCKTLICHGDTLCTDDRAYQRFRKIVHRKRLQKLFLMLPLKWRTRLATKIRRVSKMEKQVKPADIMDVNAAFTARQVRAFGAERLIHGHTHREHIHHENGFTRIVLGDWHNDYASILRVDGDGAVFVPLEKY | not soluble
MKPIACLFAAFAALPVLAHAQTVQMPDVLAAEHALSLGKPVTATIDLTRCTGDTATTPAGTTRGGVTVNPYRIQPDNTLSFSDTHFTVRSDGTPITQFLRYSIDTSGTARFSSYIFAMPAYTLQSQVSYTCKLGEGVKLFARFLEHHHHHH | soluble
MKPQWQQYIQIINQVVKPALGCTEPIAAAYAAAVARTLLNDDPDSIAVQVSDNLYKNSMGVYVPGTGKIGLAIAAAAGALAGNADAGLEVLASVTPEQVAQAQALIDAAKVKVERTETDEFIYCCVTLTSGEQEAMVKICGGHTLIAEKRLNGELVFTADNAQAKATGSICDGVDINIESIYRFAEEVPFEEIQFILKASELNSKLSDEGMSKPYGLEVGRTMKNGIAAGIIGEDLLNKIVMLTAAASDARMGGANLPAMSNLGSGNQGIAATIPVVITAQCYKVSEEKLARALIMSHLGAIYIKSHYPPLSAFCGNTVTSAAASMAMVYLAGGSFEQSCFAIQNVISDSSGMVCDGAKASCAMKVSTSSSAAVRSFLMALSSQNVSGQGIIANHVEKTIKNIGKMVLNGMSSTDVTIINIMSE | not soluble
MKPRQRQAAILEYLQKQGKCSVEELAQYFDTTGTTIRKDLVILEHAGTVIRTYGGVVLNKEESDPPIDHKTLINTHKKELIAEAAVSFIHDGDSIILDAGSTVLQIVPLLSRFNNITVMTNSLHIVNALSELDNEQTILMPGGTFRKKSASFHGQLAENAFEHFTFDKLFMGTDGIDLNAGVTTFNEVYTVSKAMCNAAREVILMADSSKFGRKSPNVVCSLESVDKLITDAGIDPAFRQALEEKGIDVIITGESNELEHHHHHH | soluble
